Experimental findings from publication doi:10.1101/2025.01.13.632879 are described below.

What all share (test): SEC
A general note: Size exclusion chromatography separates by hydrodynamic size, large species first.

For test [1], the target named is Clostridioides difficile GerS K71R, His6-tagged (Clostridioides difficile).
Test [2] has as its target Clostridioides difficile GerS N74L, His6-tagged (Clostridioides difficile).
The target in test [3] is Clostridioides difficile GerS T72P, His6-tagged (Clostridioides difficile).
Test [4] has as its target Clostridioides difficile GerS, His6-tagged (wild type) (Clostridioides difficile).
For test [5], the target named is GerS ortholog from Paraclostridium bifermentans, His6-tagged (Paraclostridium bifermentans).
Test [6] has as its target GerS ortholog from Paraclostridium sordellii, His6-tagged (Paraclostridium sordellii).

With “Clostridioides difficile GerS K71R, His6-tagged (natural protein)”, the stoichiometry N in test [1] came to 2.

“Clostridioides difficile GerS N74L, His6-tagged (natural protein)” yielded a stoichiometry N in test [2] of 2.

Take “Clostridioides difficile GerS T72P, His6-tagged (natural protein)”: in test [3], the stoichiometry N was determined as 2.

Turning to “Clostridioides difficile GerS, His6-tagged (wild type) (natural protein)”, the stoichiometry N in test [4] amounted to 2.

As to “GerS ortholog from Paraclostridium bifermentans, His6-tagged (natural protein)”, the stoichiometry N in test [5] worked out at 2.

“GerS ortholog from Paraclostridium sordellii, His6-tagged (natural protein)” showed a stoichiometry N in test [6] of 2.

For orientation: stoichiometry N means the number of molecules, sites or subunits per partner or assembly.
